The values that follow come from EP4763862A1 (Beijing Tide Pharmaceutical Co., Ltd., dated 2026).

One assay addresses T1, B7-H3 on NCI-H446 cells (UniProt Q5ZPR3 29-534).
T1 construct: whole, on cells
T1 sequence (looked up): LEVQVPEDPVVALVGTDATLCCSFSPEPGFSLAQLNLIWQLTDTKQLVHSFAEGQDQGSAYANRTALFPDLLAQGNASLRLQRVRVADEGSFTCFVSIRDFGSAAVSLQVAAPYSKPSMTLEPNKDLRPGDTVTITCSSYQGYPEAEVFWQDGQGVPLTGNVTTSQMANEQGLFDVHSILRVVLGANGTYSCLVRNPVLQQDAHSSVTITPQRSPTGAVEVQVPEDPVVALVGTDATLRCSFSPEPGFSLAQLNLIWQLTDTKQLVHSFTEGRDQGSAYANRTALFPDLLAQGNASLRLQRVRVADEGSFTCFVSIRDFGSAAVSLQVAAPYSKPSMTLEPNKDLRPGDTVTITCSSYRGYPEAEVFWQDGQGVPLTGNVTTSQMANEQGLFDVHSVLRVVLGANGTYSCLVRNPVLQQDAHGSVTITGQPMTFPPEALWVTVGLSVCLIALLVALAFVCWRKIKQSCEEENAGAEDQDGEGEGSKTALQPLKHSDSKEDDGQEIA
Nature of the assay: flow cytometry on NCI-H446 cells, goat anti-human Fc secondary. For orientation: Flow cytometry measures light scatter and fluorescence of single cells or particles in a stream.

The next assay has as its target T2, hB7-H1 (PD-L1) (human, UniProt Q9NZQ7 19-238).
T2 construct: Species read from the printed prefix h; not shown: His tag
Nature of the assay: ELISA, His-tagged antigen coated at 1 µg/mL, HRP-Protein A detection.

Another assay deals with T3, B7-H2 (UniProt O75144 19-258, limits assumed).
T3 construct: not shown: His tag
T3 sequence (looked up): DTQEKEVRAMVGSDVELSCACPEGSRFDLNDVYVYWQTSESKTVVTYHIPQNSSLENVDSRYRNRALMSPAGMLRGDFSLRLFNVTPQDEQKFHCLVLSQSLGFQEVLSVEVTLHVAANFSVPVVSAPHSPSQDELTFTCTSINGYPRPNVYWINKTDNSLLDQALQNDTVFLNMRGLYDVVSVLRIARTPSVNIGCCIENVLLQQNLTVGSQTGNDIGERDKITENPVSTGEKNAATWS
The description is as above.

A further assay has as its target T4, B7-H4 (UniProt Q7Z7D3 29-258, limits assumed).
T4 construct: not shown: His tag
T4 sequence (looked up): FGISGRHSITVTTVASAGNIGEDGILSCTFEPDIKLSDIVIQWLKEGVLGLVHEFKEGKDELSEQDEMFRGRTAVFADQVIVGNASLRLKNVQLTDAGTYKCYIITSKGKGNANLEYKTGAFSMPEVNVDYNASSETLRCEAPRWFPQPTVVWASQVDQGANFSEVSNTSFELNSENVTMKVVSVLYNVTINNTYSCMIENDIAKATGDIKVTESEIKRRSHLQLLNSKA
The description is as above.

A further assay concerns the target T5, B7-H5 (UniProt Q9H7M9 33-194).
T5 construct: The name B7-H5 is ambiguous in the literature; not shown: His tag
T5 sequence (looked up): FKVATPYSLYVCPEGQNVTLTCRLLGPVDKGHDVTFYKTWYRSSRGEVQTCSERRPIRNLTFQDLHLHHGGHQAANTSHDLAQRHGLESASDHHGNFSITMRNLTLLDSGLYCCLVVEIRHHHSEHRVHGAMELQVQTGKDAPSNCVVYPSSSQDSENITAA
Described as above.

A further assay addresses T6, B7-H6 (UniProt Q68D85 25-262).
T6 construct: not shown: His tag
T6 sequence (looked up): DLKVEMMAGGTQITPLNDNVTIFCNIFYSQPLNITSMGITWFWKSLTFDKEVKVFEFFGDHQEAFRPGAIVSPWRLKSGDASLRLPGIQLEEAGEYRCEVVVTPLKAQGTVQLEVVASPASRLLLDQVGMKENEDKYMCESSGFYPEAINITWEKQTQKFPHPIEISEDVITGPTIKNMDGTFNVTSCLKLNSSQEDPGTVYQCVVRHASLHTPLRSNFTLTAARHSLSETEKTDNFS
The description is as above.

Another assay has as its target T7, B7-1 (UniProt P33681 35-242).
T7 construct: not shown: His tag
T7 sequence (looked up): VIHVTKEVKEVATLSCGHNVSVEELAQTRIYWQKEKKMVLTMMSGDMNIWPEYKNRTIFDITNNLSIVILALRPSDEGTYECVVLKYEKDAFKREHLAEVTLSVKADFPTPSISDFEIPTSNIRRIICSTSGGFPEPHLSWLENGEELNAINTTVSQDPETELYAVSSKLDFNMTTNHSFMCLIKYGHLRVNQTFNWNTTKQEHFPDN
Described as above.

The next assay has as its target T8, B7-2 (UniProt P42081 26-247, limits assumed).
T8 construct: not shown: His tag
T8 sequence (looked up): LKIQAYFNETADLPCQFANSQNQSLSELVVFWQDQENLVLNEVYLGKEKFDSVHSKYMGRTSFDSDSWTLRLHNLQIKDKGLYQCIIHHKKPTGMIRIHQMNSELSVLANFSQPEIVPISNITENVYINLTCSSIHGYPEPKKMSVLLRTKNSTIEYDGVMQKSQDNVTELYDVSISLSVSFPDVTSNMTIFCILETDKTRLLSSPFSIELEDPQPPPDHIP
The assay is described as above.

The target of a further assay is T9, PD-L2 (UniProt Q9BQ51 20-219).
T9 construct: not shown: His tag
T9 sequence (looked up): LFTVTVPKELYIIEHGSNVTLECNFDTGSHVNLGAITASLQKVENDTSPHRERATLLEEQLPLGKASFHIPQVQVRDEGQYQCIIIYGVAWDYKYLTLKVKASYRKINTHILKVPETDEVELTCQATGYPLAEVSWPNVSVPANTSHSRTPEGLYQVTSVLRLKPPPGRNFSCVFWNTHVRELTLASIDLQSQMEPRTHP
The description is as above.

The next assay addresses T10, B7-H7 (UniProt Q9UM44 23-344).
T10 construct: not shown: His tag
T10 sequence (looked up): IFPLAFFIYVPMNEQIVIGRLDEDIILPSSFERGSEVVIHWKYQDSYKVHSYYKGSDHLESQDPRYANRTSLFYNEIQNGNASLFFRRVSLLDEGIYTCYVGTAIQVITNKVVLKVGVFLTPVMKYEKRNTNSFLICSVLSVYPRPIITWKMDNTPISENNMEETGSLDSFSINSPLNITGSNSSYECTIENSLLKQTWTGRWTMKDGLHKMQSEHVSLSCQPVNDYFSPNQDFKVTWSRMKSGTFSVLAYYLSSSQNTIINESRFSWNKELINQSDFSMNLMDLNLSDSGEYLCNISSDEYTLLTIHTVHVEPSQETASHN
The assay is described as above.

The target in a further assay is T11, B7-H3 Cyno-His (cynomolgus monkey).
T11 construct: also called cynomolgus monkey B7-H3
Nature of the assay: SPR, Biacore 8K, antibody captured by anti-human IgG Fc on CM5, B7-H3 Cyno-His as analyte, 1:1 model. A general note: SPR reads the build-up and loss of mass on a sensor chip optically.

What is called EC50 is the concentration needed to bring the measured effect to its halfway point. Higher therefore signals lower potency in that assay. One may read the Kd as the free concentration of one partner at which half of the binding sites on the other are occupied at equilibrium, for simple one-to-one binding. Usually koff stands for the rate constant with which the complex falls apart. Read a low koff as slow dissociation. As a reminder, the kon is the second-order rate constant of association. Read a low kon as slower complex formation.

T2 sequence (Q9NZQ7 19-238 limits assumed): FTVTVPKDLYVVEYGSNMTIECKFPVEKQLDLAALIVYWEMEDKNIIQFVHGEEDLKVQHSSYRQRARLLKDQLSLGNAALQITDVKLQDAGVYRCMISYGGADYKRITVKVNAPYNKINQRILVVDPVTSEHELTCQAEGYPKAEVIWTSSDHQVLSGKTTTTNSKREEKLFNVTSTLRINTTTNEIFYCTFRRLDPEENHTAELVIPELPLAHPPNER

B1: cAb1-z3-p7 (antibody, human IgG1, kappa, V domains shown)
VH: EVQLVESGGGLVKPGGSLRLSCAASGFTFSSYGMSWVRQAPGKRLEWVSSISGSGSYTYYPDSLKGRFTISRDNAKNSLYLQMNSLRAEDTAVYYCARQQGYWYFDVWGQGTTVTVSS
VL: DVVMTQTPLSLPVTPGEPASISCRASQSLASSYGKTYLSWYLQKPGQSPQLLIYGISNRFSGVPDRFSGSGSGTDFTLKISRVEAEDVGVYYCLHGTHQPLTFGQGTKLEIKR
notes: Humanized from 48-B4-F4-E4; Human IgG1 / kappa; also called cAbl-z3-p7
As to B1, the EC50 with B7-H3 on NCI-H446 cells was found to be 4.66 nM. Besides, the binding result with hB7-H1 (PD-L1), in the assay with B7-H2, in the assay with B7-H4, with B7-H5, in the assay with B7-H6 and in the assay with B7-1 was “no binding (tested: starting concentration 10 µg/ml)” each time. In addition, the binding result in the assay with B7-2, in the assay with PD-L2 and with B7-H7 was “no binding (tested: starting concentration 10 µg/ml)” in each case. This molecule also registered a Kd in the assay with B7-H3 Cyno-His of 3.87 nM. The molecule further displayed a koff with B7-H3 Cyno-His of 5.82e-05 s⁻¹. Besides, the kon with B7-H3 Cyno-His amounted to 15100 M⁻¹ s⁻¹.

B2: cAb1-z5-p7 (antibody, human IgG1, kappa, V domains shown)
VH: EVQLVESGGGLVKPGGSLRLSCAASGFTFSSYGMSWVRQAPGKRLEWVASISGSGSYTYYPDSLKGRFTISRDNAKNSLYLQMNSLRAEDTAVYYCARQQGYWYFDVWGQGTTVTVSS
VL: DVVMTQTPLSLPVTPGEPASISCRASQSLASSYGKTYLSWYLQKPGQSPQLLIYGISNRFSGVPDRFSGSGSGTDFTLKISRVEAEDVGVYYCLHGTHQPLTFGQGTKLEIKR
notes: Humanized from 48-B4-F4-E4; Human IgG1 / kappa; also called cAbl-z5-p7
The molecule B2 returned an EC50 with B7-H3 on NCI-H446 cells of 3.69 nM. For the same molecule, the binding result with hB7-H1 (PD-L1), with B7-H2, with B7-H4, with B7-H5, with B7-H6 and in the assay with B7-1 was “no binding (tested: starting concentration 10 µg/ml)” throughout. The binding result in the assay with B7-2, with PD-L2 and with B7-H7 was “no binding (tested: starting concentration 10 µg/ml)” each time. The Kd with B7-H3 Cyno-His amounted to 3.9 nM. Also, the koff in the assay with B7-H3 Cyno-His stood at 6.17e-05 s⁻¹. In the assay with B7-H3 Cyno-His, this molecule gave an association rate constant (kon) of 15800 M⁻¹ s⁻¹.

B3: cAb1-z0-p7 (antibody, human IgG1, kappa, V domains shown)
VH: EVQLVESGGGLVKPGGSLRLSCAASGFTFSSYGMSWVRQAPGKGLEWVSSISGSGSYTYYPDSLKGRFTISRDNAKNSLYLQMNSLRAEDTAVYYCARQQGYWYFDVWGQGTTVTVSS
VL: DIVMTQTPLSLPVTPGEPASISCRASQSLASSYGKTYLSWYLQKPGQSPQLLIYGISNRFSGVPDRFSGSGSGTDFTLKISRVEAEDVGVYYCLHGTHQPLTFGQGTKLEIKR
notes: Humanized from 48-B4-F4-E4; Human IgG1 / kappa
With B3, a half-maximal response with B7-H3 on NCI-H446 cells (EC50) required 9.7 nM. In addition, the binding result with hB7-H1 (PD-L1), with B7-H2, with B7-H4, in the assay with B7-H5, with B7-H6 and with B7-1 was “no binding (tested: starting concentration 10 µg/ml)” in each case. For the same molecule, the binding result with B7-2, with PD-L2 and in the assay with B7-H7 was “no binding (tested: starting concentration 10 µg/ml)” throughout. The molecule further came in with a dissociation constant (Kd) with B7-H3 Cyno-His of 7.86 nM. This molecule gave a koff with B7-H3 Cyno-His of 7.68e-05 s⁻¹. Besides, in the assay with B7-H3 Cyno-His, the kon was determined as 9770 M⁻¹ s⁻¹.
